# T1: smt3-mATGL288-StrepII (mouse adipose triglyceride lipase truncated after D288), wild type (mouse, UniProt Q8BJ56 1-288)
# T1 sequence (looked up): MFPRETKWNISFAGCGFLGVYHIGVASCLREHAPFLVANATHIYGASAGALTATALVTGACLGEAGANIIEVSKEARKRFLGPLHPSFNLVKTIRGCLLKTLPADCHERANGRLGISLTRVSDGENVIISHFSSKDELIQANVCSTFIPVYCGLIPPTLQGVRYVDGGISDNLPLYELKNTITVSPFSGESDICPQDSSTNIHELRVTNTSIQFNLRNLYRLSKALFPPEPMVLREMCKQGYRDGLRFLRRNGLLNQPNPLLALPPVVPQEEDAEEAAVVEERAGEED
# T2: smt3-mATGL288-StrepII N209A (mouse, UniProt Q8BJ56 1-288, N209A)
# T2 sequence (looked up): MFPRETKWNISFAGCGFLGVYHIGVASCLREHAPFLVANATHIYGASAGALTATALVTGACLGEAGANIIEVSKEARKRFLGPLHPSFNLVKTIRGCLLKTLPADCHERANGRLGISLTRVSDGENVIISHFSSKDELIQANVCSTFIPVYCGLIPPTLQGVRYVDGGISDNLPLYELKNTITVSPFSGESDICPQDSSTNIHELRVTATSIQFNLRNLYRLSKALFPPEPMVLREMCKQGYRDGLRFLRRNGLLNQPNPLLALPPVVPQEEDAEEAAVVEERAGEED
# T3: smt3-mATGL288-StrepII I212A (mouse, UniProt Q8BJ56 1-288, I212A)
# T3 sequence (looked up): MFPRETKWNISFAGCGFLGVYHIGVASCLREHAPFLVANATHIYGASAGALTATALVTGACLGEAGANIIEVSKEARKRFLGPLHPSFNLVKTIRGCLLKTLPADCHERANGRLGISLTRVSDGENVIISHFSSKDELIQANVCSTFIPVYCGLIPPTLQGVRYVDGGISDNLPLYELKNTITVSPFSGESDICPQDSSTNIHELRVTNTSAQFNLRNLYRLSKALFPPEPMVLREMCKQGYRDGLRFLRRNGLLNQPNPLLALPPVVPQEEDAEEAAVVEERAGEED
# T4: smt3-mATGL288-StrepII I212S (mouse, UniProt Q8BJ56 1-288, I212S)
# T4 sequence (looked up): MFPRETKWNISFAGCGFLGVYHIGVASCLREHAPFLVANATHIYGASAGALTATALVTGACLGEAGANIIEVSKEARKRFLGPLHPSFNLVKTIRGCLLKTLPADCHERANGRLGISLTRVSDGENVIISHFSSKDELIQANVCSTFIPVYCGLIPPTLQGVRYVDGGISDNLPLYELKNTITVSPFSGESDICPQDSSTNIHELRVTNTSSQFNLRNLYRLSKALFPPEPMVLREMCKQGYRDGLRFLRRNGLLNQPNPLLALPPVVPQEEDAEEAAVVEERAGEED
# T5: smt3-mATGL288-StrepII N215A (mouse, UniProt Q8BJ56 1-288, N215A)
# T5 sequence (looked up): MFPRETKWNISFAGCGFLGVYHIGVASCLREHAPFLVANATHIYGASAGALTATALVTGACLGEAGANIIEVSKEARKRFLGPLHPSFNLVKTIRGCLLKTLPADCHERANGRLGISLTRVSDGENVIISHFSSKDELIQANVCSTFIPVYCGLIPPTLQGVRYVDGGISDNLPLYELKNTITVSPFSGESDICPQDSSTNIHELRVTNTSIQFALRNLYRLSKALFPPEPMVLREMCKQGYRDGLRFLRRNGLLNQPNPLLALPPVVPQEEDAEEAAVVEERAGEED
# Legend:
# Assay in all cases: cell-based or functional assay
# [1] = molecular target: T1, smt3-mATGL288-StrepII (mouse adipose …)
# [2] = molecular target: T2, smt3-mATGL288-StrepII N209A
# [3] = molecular target: T3, smt3-mATGL288-StrepII I212A
# [4] = molecular target: T4, smt3-mATGL288-StrepII I212S
# [5] = molecular target: T5, smt3-mATGL288-StrepII N215A
binder,measurement,setting,value
"smt3-mCGI-58-His6 (mouse comparative gene identification-58) (natural protein, UniProt Q9DBL9 1-351, looked up) MKAMAAEEEVDSADAGGGSGWLTGWLPTWCPTSTSHLKEAEEKMLKCVPCTYKKEPVRISNGNRIWTLMFSHNISSKTPLVLLHGFGGGLGLWALNFEDLSTDRPVYAFDLLGFGRSSRPRFDSDAEEVENQFVESIEEWRCALRLDKMILLGHNLGGFLAAAYSLKYPSRVSHLILVEPWGFPERPDLADQERPIPVWIRALGAALTPFNPLAGLRIAGPFGLSLVQRLRPDFKRKYSSMFEDDTVTEYIYHCNVQTPSGETAFKNMTIPYGWAKRPMLQRIGGLHPDIPVSVIFGARSCIDGNSGTSIQSLRPKSYVKTIAILGAGHYVYADQPEEFNQKVKEICHTVD","EC50 of mCGI-58 for co-activation of the TG hydrolase activity of mATGL288 (25 ug bacterial lysate, purified mCGI-58 up to 2300 nM)",[1],178 nM
same,"EC50 of mCGI-58 for co-activation of the TG hydrolase activity of mATGL288 N209A (25 ug bacterial lysate, purified mCGI-58 up to 2300 nM)",[2],~500 nM
same,"EC50 of mCGI-58 for co-activation of the TG hydrolase activity of mATGL288 I212A (25 ug bacterial lysate, purified mCGI-58 up to 2300 nM)",[3],~500 nM
same,"EC50 of mCGI-58 for co-activation of the TG hydrolase activity of mATGL288 I212S (25 ug bacterial lysate, purified mCGI-58 up to 2300 nM)",[4],~200 nM
same,"EC50 of mCGI-58 for co-activation of the TG hydrolase activity of mATGL288 N215A (25 ug bacterial lysate, purified mCGI-58 up to 2300 nM)",[5],~200 nM
